Results on two molecules are retold here after patent US20250320284A1 (AC IMMUNE, published 2025).

One experiment deals with T1, mouse ASC (mouse, UniProt Q9EPB4 1-193).
T1 construct: recombinant mASC in ELISA and SPR; endogenous ASC of J774.A1 cells in Western blot and immunofluorescence; also called mASC
T1 sequence: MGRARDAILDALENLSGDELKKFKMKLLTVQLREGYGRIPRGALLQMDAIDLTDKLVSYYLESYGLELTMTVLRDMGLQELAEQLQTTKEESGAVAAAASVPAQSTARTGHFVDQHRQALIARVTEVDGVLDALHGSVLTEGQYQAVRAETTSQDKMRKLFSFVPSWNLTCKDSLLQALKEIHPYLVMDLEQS
The experiment is described as follows: Western blot, J774.A1 mouse macrophage lysate.

Experiment [1] has as its target T2, human ASC (apoptosis associated speck-like protein containing a caspase-recruitment domain) (human, UniProt Q9ULZ3 1-195).
T2 construct: recombinant hASC in ELISA and SPR; endogenous ASC (cytoplasmic or specks) in Western blot and immunofluorescence; also called hASC; PYCARD
Nature of the experiment: SPR affinity mode, mAb captured.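 Further: Single-cycle SPR kinetics with mAbs captured on goat anti-mouse antibody, double-referenced against blank flow cell and buffer cycle, fitted by a 1:1 kinetic model.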

The target in another experiment is T3, CARD domain of human ASC (human, UniProt Q9ULZ3 107-195).
T3 construct: biotinylated in BLI; also called hCARD; human CARD
T3 sequence: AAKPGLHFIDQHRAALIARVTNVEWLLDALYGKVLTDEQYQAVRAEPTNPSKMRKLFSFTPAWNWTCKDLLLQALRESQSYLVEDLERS
Nature of the experiment: ELISA, coated hCARD.

Another experiment addresses T4, PYD domain of human ASC (human, UniProt Q9ULZ3 1-91, limits assumed).
T4 construct: biotinylated in BLI; His/MBP-tagged in the alanine ELISA; also called hPYD; human PYD
The experiment is described as follows: ELISA, coated hPYD.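 Further: monoclonal antibody binding to plate-coated human ASC PYD measured by ELISA, with a phosphatase substrate absorbance read-out and EC50 from a variable slope curve fit.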

In experiment [2] the target is T2, human ASC (apoptosis associated …). Nature of the experiment: SPR avidity mode, ASC immobilized.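 Further: Single-cycle SPR kinetics on Biacore T200, antibodies injected at 1.2–100 nM (3-fold steps), 300 s association, 900 s dissociation, double-referenced, 1:1 kinetic model fit.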
Experiment [3] has the same target. Nature of the experiment: ELISA, coated hASC.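 Further: antibody binding to plate-coated recombinant human ASC, read as phosphatase substrate absorbance, EC50 from four-parameter variable-slope fit.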
For experiment [4] the target is unchanged. Nature of the experiment: SPR affinity mode, mAb captured; SPR affinity mode, mAb captured by Fc, hASC 2.2-180 nM in solution.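 Further: Single-cycle SPR kinetics with mAbs captured on goat anti-mouse antibody, double-referenced against blank flow cell and buffer cycle, fitted by a 1:1 kinetic model.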
Experiment [5] shares this target. The experiment is described as follows: ELISA, coated hASC; ELISA on hASC protein.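 Further: antibody binding to plate-coated recombinant human ASC, read as phosphatase substrate absorbance, EC50 from four-parameter variable-slope fit.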
For experiment [6] the target is unchanged. The experiment is described as follows: SPR avidity mode, ASC immobilized; SPR avidity mode, hASC covalently immobilized, mAb as analyte.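 Further: Single-cycle SPR kinetics on Biacore T200, antibodies injected at 1.2–100 nM (3-fold steps), 300 s association, 900 s dissociation, double-referenced, 1:1 kinetic model fit.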

T4 sequence (Q9ULZ3 1-91 limits assumed): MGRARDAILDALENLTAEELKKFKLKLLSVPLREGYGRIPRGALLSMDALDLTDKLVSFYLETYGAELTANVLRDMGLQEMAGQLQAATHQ

B1: ACI-8016-413G10A5-AB1 (antibody, V domains shown)
VH: QVQLKESGPGLVAPSQSLSITCTVSGFSLTSYGVHWVRQPPGKGLEWLGVIWAGGSTNYNSALMSRLSISKDNSKSQVFLKMNSLQTADTAMYYCARWDYVNSYEAMDYWGQGTSVTVSS
VL: DVVMTQTPLSLPVSLGDQASISCRSSQSLVHSNGNTYLHWYLQKPGQSPKLLIYKVSNRFSGVPDRFSGSGSGTDFTLKISRVEAEDLGVYFCSQSTHVPYTFGGGTKLEIK
Regarding B1, the binding result in the experiment with mouse ASC and with PYD domain of human ASC was “no binding” in each case. The Kd in experiment [1] stood at 0.13 nM; in [2] it was 0.01 nM. Also, the koff in experiment [1] was determined as 2.2e-05 s⁻¹; in experiment [2], 1.2e-06 s⁻¹. In addition, the kon in experiment [1] was found to be 160000 M⁻¹ s⁻¹; in [2], 92000 M⁻¹ s⁻¹. The EC50 in the experiment with CARD domain of human ASC amounted to 0.06 nM; in experiment [3] it was 0.05 nM.

B2: ACI-8016-203B12C3-AB1 (antibody, V domains shown)
VH: QVQLKQSGPGLVQPSQSLSITCKVSDFSLSHYGVHWVRQSPGKGLEWLGVIWSGGTTEYNEAFISRLTISKDNSKSQILFRMNSLQPADTAIYYCARKGDFYGDYFDYWGQGTTLTVSS
VL: DIQMTQTSSSLSASLGDRVTISCRASQDISNYLNWYQQRPDGTVKLLIYYTSKVHSGVPSRFSGSGSGTDFSLTISNLEQEDFATYYCQQGNTRPFTFGGGTKLEIK
On to B2, for which the Kd in experiment [4] came to 42 nM; in [6] it was 10.2 nM. Further, the EC50 in the experiment with CARD domain of human ASC was 0.067 nM; in [5] it was 0.1 nM. For the same molecule, the binding result with PYD domain of human ASC is given as “no binding”.
